Assay results from paper PMC3506575.

Target: human GLP-2 Receptor (human) (UniProt O95838)
UniProt O95838, sequence (O95838 whole entry): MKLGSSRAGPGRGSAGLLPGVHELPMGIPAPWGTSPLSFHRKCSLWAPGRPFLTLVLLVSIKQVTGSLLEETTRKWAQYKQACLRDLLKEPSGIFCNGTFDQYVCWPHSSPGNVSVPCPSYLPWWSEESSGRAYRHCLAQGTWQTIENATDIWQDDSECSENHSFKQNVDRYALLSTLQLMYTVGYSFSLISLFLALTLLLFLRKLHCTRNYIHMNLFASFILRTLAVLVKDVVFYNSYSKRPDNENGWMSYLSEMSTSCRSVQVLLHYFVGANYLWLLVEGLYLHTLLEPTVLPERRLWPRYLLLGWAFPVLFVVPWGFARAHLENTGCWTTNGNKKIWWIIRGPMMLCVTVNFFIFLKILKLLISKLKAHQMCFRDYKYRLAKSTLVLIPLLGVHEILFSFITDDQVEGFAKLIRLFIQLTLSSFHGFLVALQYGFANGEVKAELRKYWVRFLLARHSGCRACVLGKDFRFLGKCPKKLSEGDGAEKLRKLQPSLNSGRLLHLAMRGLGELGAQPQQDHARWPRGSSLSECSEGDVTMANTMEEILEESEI

calcium flux (FLIPR) in a human GLP-2 receptor-expressing Chem-11 cell line, serial dilutions, EC50 of activation: 380 nM
B1: GLP2-2G-XTEN fusion protein (protein)
chain: HGDGSFSDEMNTILDNLAARDFINWLIQTKITDGGSPAGSPTSTEEGTSESATPESGPGTSTEPSEGSAPGSPAGSPTSTEEGTSTEPSEGSAPGTSTEPSEGSAPGTSESATPESGPGSEPATSGSETPGSEPATSGSETPGSPAGSPTSTEEGTSESATPESGPGTSTEPSEGSAPGTSTEPSEGSAPGSPAGSPTSTEEGTSTEPSEGSAPGTSTEPSEGSAPGTSESATPESGPGTSTEPSEGSAPGTSESATPESGPGSEPATSGSETPGTSTEPSEGSAPGTSTEPSEGSAPGTSESATPESGPGTSESATPESGPGSPAGSPTSTEEGTSESATPESGPGSEPATSGSETPGTSESATPESGPGTSTEPSEGSAPGTSTEPSEGSAPGTSTEPSEGSAPGTSTEPSEGSAPGTSTEPSEGSAPGTSTEPSEGSAPGSPAGSPTSTEEGTSTEPSEGSAPGTSESATPESGPGSEPATSGSETPGTSESATPESGPGSEPATSGSETPGTSESATPESGPGTSTEPSEGSAPGTSESATPESGPGSPAGSPTSTEEGSPAGSPTSTEEGSPAGSPTSTEEGTSESATPESGPGTSTEPSEGSAPGTSESATPESGPGSEPATSGSETPGTSESATPESGPGSEPATSGSETPGTSESATPESGPGTSTEPSEGSAPGSPAGSPTSTEEGTSESATPESGPGSEPATSGSETPGTSESATPESGPGSPAGSPTSTEEGSPAGSPTSTEEGTSTEPSEGSAPGTSESATPESGPGTSESATPESGPGTSESATPESGPGSEPATSGSETPGSEPATSGSETPGSPAGSPTSTEEGTSTEPSEGSAPGTSTEPSEGSAPGSEPATSGSETPGTSESATPESGPGTSTEPSEGSAPG
